From patent US20100285988A1 (published 2010)

Biological target: γ-secretase (human; HeLa cell membrane / solubilized HeLa membrane; endogenous in HEK293 cells) (human, UniProt P49768 1-467; Q92542 34-709; Q9NZ42 1-101; Q96BI3 1-265)

Binder	IC50
LVFFAQD [Aβ17-23 heptapeptide with the Dutch mutation (E22Q)]	2120 nM
LVFFGED [Aβ17-23 heptapeptide with the Flemish mutation (A21G)]	5270 nM
LVFFAGD [Aβ17-23 heptapeptide with the Arctic mutation (E22G)]	3890 nM

Continued, values first:

IC50	Binder
2940 nM	LVFFAEN [Aβ17-23 heptapeptide with the Iowa mutation (D23N)]
2130 nM	LVFFAKD [Aβ17-23 heptapeptide with the Italian mutation (E22K)]
